Patent publication US20250346679A1 (INVOX PHARMA, published 2025)

T1: cCD137-mFc-Avi (cynomolgus; mouse)
T1 construct: also called cynomolgus CD137-mFc-Avi; Cyno CD137-mFc-Avi; not shown: mouse IgG2a Fc domain (mIgG2a Fc)
T1 chain: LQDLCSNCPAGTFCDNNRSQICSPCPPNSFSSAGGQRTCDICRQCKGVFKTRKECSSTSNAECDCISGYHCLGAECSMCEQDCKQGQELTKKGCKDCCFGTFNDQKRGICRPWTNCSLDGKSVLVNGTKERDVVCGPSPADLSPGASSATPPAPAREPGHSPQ

T2: human OX40 (human, UniProt P43489 29-216)
T2 sequence (looked up): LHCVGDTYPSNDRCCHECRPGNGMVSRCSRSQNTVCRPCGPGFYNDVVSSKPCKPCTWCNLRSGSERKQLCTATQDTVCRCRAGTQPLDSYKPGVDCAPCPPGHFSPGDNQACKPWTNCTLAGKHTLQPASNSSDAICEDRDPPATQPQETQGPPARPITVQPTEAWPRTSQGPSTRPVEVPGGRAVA

T3: human GITR (human, UniProt Q9Y5U5 26-161, limits assumed)
T3 sequence (looked up): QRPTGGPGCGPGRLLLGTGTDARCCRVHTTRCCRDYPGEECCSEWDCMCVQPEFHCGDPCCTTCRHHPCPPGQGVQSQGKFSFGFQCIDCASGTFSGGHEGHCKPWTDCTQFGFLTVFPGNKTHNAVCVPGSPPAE

B1: G1-AA/lam-G02v3 (antibody, human IgG1, L234A L235A, V domains shown)
VH: EVQLVQSGAEVKRPGASVKVSCKASGYTFTSYGISWVRQAPGQGLEWMGWISAYSGGTNYAQKLQGRVTMTTDTSTSTAYMELRSLRSDDTAVYYCARDLFPTIFGVSYYYYWGQGTLVTVSS
VL: QSALTQPASVSGSPGQSITISCTGTSSDVGGYNYVSWYQQFPGKAPKLMIFEVTNRPSGVSDRFSGSKSDNTASLTISGLQAEDEAEYYCSSFKRGSTLVVFG
notes: anti-PD-L1 IgG1 with LALA, lambda light chain; also called G1-AA/lambdav3; G1-AA/Iam-G02v3
B2: G1-AA/E05v2 (antibody, human IgG1, kappa, L234A L235A, V domains shown)
VH: EVQLVQSGAEVKRPGASVKVSCKASGYTFTSYGISWVRQAPGQGLEWMGWISAYSGGTNYAQKLQGRVTMTTDTSTSTAYMELRSLRSDDTAVYYCARDLFPTIFGVSYYYYWGQGTLVTVSS
VL: DIQMTQSPSTLSASVGDRVTITCRASQSISGRLAWYQQKPGKAPNLLIYEASNLESGVPSRFSGSGSGTEFTLTISSLQPEDFATYYCQQSYSTPRVTFGQGTKVEIKR
notes: anti-PD-L1 IgG1 with LALA
B3: FS22-053-008/HeID1.3 (bispecific antibody, human IgG1, kappa)
heavy: QVQLQESGPGLVRPSQTLSLTCTVSGSTFSGYGVNWVRQPPGRGLEWIGMIWGDGNTDYNSALKSRVTMLVDTSKNQFSLRLSSVTAADTAVYYCARERDYRLDYWGQGSLVTVSSASTKGPSVFPLAPSSKSTSGGTAALGCLVKDYFPEPVTVSWNSGALTSGVHTFPAVLQSSGLYSLSSVVTVPSSSLGTQTYICNVNHKPSNTKVDKKVEPKSCDKTHTCPPCPAPELLGGPSVFLFPPKPKDTLMISRTPEVTCVVVDVSHEDPEVKFNWYVDGVEVHNAKTKPREEQYNSTYRVVSVLTVLHQDWLNGKEYKCKVSNKALPAPIEKTISKAKGQPREPQVYTLPPSRDELNPPYLFSNQVSLTCLVKGFYPSDIAVEWESNGQPENNYKTTPPVLDSDGSFFLYSKLTVDYWRWLEGNVFSCSVMHEALHNHYTQKSLSLSPG
light: DIQMTQSPASLSASVGETVTITCRASGNIHNYLAWYQQKQGKSPQLLVYNAKTLADGVPSRFSGSGSGTQYSLKINSLQPEDFGSYYCQHFWSTPRTFGGGTKLEIKRTVAAPSVFIFPPSDEQLKSGTASVVCLLNNFYPREAKVQWKVDNALQSGNSQESVTEQDSKDSTYSLSSTLTLSKADYEKHKVYACEVTHQGLSSPVTKSFNRGEC
notes: mock mAb^2; also called FS22-053-008 (mock mAb^2 format)
B4: FS22-172-004/HeID1.3 (bispecific antibody, human IgG1, kappa)
heavy: QVQLQESGPGLVRPSQTLSLTCTVSGSTFSGYGVNWVRQPPGRGLEWIGMIWGDGNTDYNSALKSRVTMLVDTSKNQFSLRLSSVTAADTAVYYCARERDYRLDYWGQGSLVTVSSASTKGPSVFPLAPSSKSTSGGTAALGCLVKDYFPEPVTVSWNSGALTSGVHTFPAVLQSSGLYSLSSVVTVPSSSLGTQTYICNVNHKPSNTKVDKKVEPKSCDKTHTCPPCPAPELLGGPSVFLFPPKPKDTLMISRTPEVTCVVVDVSHEDPEVKFNWYVDGVEVHNAKTKPREEQYNSTYRVVSVLTVLHQDWLNGKEYKCKVSNKALPAPIEKTISKAKGQPREPQVYTLPPSRDELNYIYPPYNQVSLTCLVKGFYPSDIAVEWESNGQPENNYKTTPPVLDSDGSFFLYSKLTVGADRWLEGNVFSCSVMHEALHNHYTQKSLSLSPG
light: DIQMTQSPASLSASVGETVTITCRASGNIHNYLAWYQQKQGKSPQLLVYNAKTLADGVPSRFSGSGSGTQYSLKINSLQPEDFGSYYCQHFWSTPRTFGGGTKLEIKRTVAAPSVFIFPPSDEQLKSGTASVVCLLNNFYPREAKVQWKVDNALQSGNSQESVTEQDSKDSTYSLSSTLTLSKADYEKHKVYACEVTHQGLSSPVTKSFNRGEC
notes: mock mAb^2
B5: FS22-172-003/HeID1.3 (bispecific antibody, human IgG1, kappa)
heavy: QVQLQESGPGLVRPSQTLSLTCTVSGSTFSGYGVNWVRQPPGRGLEWIGMIWGDGNTDYNSALKSRVTMLVDTSKNQFSLRLSSVTAADTAVYYCARERDYRLDYWGQGSLVTVSSASTKGPSVFPLAPSSKSTSGGTAALGCLVKDYFPEPVTVSWNSGALTSGVHTFPAVLQSSGLYSLSSVVTVPSSSLGTQTYICNVNHKPSNTKVDKKVEPKSCDKTHTCPPCPAPELLGGPSVFLFPPKPKDTLMISRTPEVTCVVVDVSHEDPEVKFNWYVDGVEVHNAKTKPREEQYNSTYRVVSVLTVLHQDWLNGKEYKCKVSNKALPAPIEKTISKAKGQPREPQVYTLPPSRDELPYIIPPYNQVSLTCLVKGFYPSDIAVEWESNGQPENNYKTTPPVLDSDGSFFLYSKLTVGADRWLEGNVFSCSVMHEALHNHYTQKSLSLSPG
light: DIQMTQSPASLSASVGETVTITCRASGNIHNYLAWYQQKQGKSPQLLVYNAKTLADGVPSRFSGSGSGTQYSLKINSLQPEDFGSYYCQHFWSTPRTFGGGTKLEIKRTVAAPSVFIFPPSDEQLKSGTASVVCLLNNFYPREAKVQWKVDNALQSGNSQESVTEQDSKDSTYSLSSTLTLSKADYEKHKVYACEVTHQGLSSPVTKSFNRGEC
notes: mock mAb^2 without LALA
B6: FS22-053-011/HeID1.3 (bispecific antibody, human IgG1, kappa)
heavy: QVQLQESGPGLVRPSQTLSLTCTVSGSTFSGYGVNWVRQPPGRGLEWIGMIWGDGNTDYNSALKSRVTMLVDTSKNQFSLRLSSVTAADTAVYYCARERDYRLDYWGQGSLVTVSSASTKGPSVFPLAPSSKSTSGGTAALGCLVKDYFPEPVTVSWNSGALTSGVHTFPAVLQSSGLYSLSSVVTVPSSSLGTQTYICNVNHKPSNTKVDKKVEPKSCDKTHTCPPCPAPELLGGPSVFLFPPKPKDTLMISRTPEVTCVVVDVSHEDPEVKFNWYVDGVEVHNAKTKPREEQYNSTYRVVSVLTVLHQDWLNGKEYKCKVSNKALPAPIEKTISKAKGQPREPQVYTLPPSRDELNPPYLFSNQVSLTCLVKGFYPSDIAVEWESNGQPENNYKTTPPVLDSDGSFFLYSKLTVDYWRWTDGNVFSCSVMHEALHNHYTQKSLSLSPG
light: DIQMTQSPASLSASVGETVTITCRASGNIHNYLAWYQQKQGKSPQLLVYNAKTLADGVPSRFSGSGSGTQYSLKINSLQPEDFGSYYCQHFWSTPRTFGGGTKLEIKRTVAAPSVFIFPPSDEQLKSGTASVVCLLNNFYPREAKVQWKVDNALQSGNSQESVTEQDSKDSTYSLSSTLTLSKADYEKHKVYACEVTHQGLSSPVTKSFNRGEC
notes: mock mAb^2; also called FS22-053-011 (mock mAb^2 format)

Legend:
[1] = biological target: T4, cPD-L1-His (Acro Biosystems, PD1-C52H4) (cynomolgus, UniProt Q9NZQ7 19-238 (human entry)); test: SPR, antibody captured on Protein A chip, antigen in flow
T4 construct: bought; also called Cyno PD-L1-His; Cynomolgus PD-L1-His; not shown: His tag of the bought product
T4 sequence (Q9NZQ7 other isoform, or with tags, fused parts or gaps): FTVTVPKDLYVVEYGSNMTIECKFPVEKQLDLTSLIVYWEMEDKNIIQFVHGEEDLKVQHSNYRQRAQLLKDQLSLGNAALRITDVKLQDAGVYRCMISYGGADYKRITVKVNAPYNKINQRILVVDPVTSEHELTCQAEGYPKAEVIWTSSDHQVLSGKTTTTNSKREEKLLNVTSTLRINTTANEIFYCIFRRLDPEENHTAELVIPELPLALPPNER

[2] = biological target: T5, biotinylated hPD-L1-Avi-His (Acro Biosystems, PD1-H82E5) (human, UniProt Q9NZQ7 19-238, biotinylated); test: as above
T5 construct: bought; also called Human PD-L1-His; not shown: Avi and His tags of the bought product
T5 sequence (Q9NZQ7 19-238): as the sequence (Q9NZQ7 other isoform, or with tags, fused parts or gaps) above, with T33A, S34A, N62S, Q68R, R82Q, L173F, A185T, I192T, L215H counted along it

[3] = biological target: human CD137, cell-surface (human, UniProt Q07011 24-255); test: cell-based or functional assay
Sequence of human CD137, cell-surface (Q07011 24-255): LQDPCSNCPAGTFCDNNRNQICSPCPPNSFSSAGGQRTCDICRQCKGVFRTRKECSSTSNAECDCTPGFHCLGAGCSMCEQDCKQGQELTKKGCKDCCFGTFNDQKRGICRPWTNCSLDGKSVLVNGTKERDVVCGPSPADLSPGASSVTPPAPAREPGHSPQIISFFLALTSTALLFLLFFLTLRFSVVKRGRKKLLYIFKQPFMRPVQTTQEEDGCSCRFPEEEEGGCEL

[4] = biological target: T1, cCD137-mFc-Avi; test: SPR, mAb^2 captured by anti-human Fab, antigen in flow, 1:1 Langmuir fit
Procedure: (§1) An anti-human Fab capture antibody was immobilised on all four flow cells of a CM5 series S chip (GE Healthcare #BR-1005-30) to an average surface density of 6000 RU following the manufacturer's recommendations (GE Healthcare, human Fab capture Kit, #28958325). […] Each mAb² was captured to approximately 150 RU by injecting a 3 μg/ml solution of mAb² diluted in HBS-EP+ buffer (GE Healthcare #BR1006-69) for 60 seconds at 30 μl/min. Then different concentrations of human, cyno or mouse CD137 antigen (unbiotinylated human, cyno or mouse CD137-mFc-Avi or human CD137-Avi-His) in HBS-EP+ buffer were flowed over the chip for 3 min at 60 μl/min and then allowed to dissociate for 10 minutes. After each antigen concentration the chip was regenerated by infecting 10 mM glycine pH 2.1 at a flow rate of 30 μl/min for 30 seconds. Buffer HBS-EP+ was injected before the highest concentration of antigen and after the lowest concentration of antigen for reference subtraction, and one of the concentrations at random was repeated twice. The binding kinetics were fit with a 1:1 Langmuir model to generate equilibrium binding constants (KD) for each sample. Data analysis was performed with BiaEvaluation software version 3.2.

[5] = biological target: T6, hCD137-Avi-His (human, UniProt Q07011 24-186); test: as above
T6 construct: also called human CD137-Avi-His; monomeric human CD137
T6 sequence (Q07011 24-186): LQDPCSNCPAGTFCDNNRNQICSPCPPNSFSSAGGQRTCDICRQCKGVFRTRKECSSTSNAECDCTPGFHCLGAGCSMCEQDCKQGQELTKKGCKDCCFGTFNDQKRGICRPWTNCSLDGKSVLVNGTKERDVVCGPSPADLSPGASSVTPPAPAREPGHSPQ
Procedure: as §1

[6] = biological target: T7, hCD137-mFc-Avi (human; mouse, UniProt Q07011 24-186, biotin on the Avi sequence where the biotinylated form was used); test: as above
T7 construct: also called human CD137-mFc-Avi; dimeric human CD137; not shown: mouse IgG2a Fc domain (mIgG2a Fc)
T7 sequence (Q07011 24-186): as above
Procedure: as §1

[7] = biological target: T2, human OX40; test: SPR, receptor amine-coupled to CM5 (~1000 RU)
Procedure: (§2) The specificity of the anti-human CD137 Fcabs for human CD137 compared to other related TNFSFR family members was tested. 8 of the Fcabs were tested in mock mAb² (HeID1.3) format and measured by SPR in a Biacore T200 (GE Healthcare) by testing for binding to other human TNFRSF receptors: CD40, OX40 and GITR. Amine coupling (amine coupling kit, GE Healthcare, BR-1000-50) was used to coat human CD40, GITR and OX40 to approximately 1000 RU in Biacore CM5 chips (GE Healthcare, cat no 29149603). […] The chip was regenerated by injection of 10 mM glycine pH 2.5 for 12 s at 30 μl/min. Antibodies specific to the different TNFRSF members were used as positive controls to verify Biacore chip coating. Data was double reference subtracted and analysed using BIAevaluation 3.2 software.

[8] = biological target: T3, human GITR; test: SPR, receptor amine-coupled to CM5 (~1000 RU)
Procedure: as §2

[9] = biological target: human CD40 (human, UniProt P25942 21-193, limits assumed); test: SPR, receptor amine-coupled to CM5 (~1000 RU)
Sequence of human CD40 (P25942 21-193 limits assumed): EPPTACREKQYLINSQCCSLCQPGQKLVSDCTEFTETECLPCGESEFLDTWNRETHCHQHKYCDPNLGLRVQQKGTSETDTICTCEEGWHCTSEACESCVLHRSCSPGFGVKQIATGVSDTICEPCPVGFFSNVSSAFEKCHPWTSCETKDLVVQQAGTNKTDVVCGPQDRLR
Procedure: as §2

Binder | Kd [1] [nM] | Kd [2] [nM] | EC50, NF-κB luciferase assay, crosslinked with Protein L (+XL) [3] [nM] | Kd [4] [nM] | Human monomeric CD137 KD fold difference relative to human dimeric KD [5] [fold] | Kd [6] [nM] | binding result [7] | binding result [8] | binding result [9]
B1 | 2.45 | 1.34 | – | – | – | – | – | – | –
B2 | 0.89 | 0.5 | – | – | – | – | – | – | –
B3 | – | – | 26.3 | 0.9 | 170 | 4.2 | no binding (tested: 1 µM) | no binding (tested: 1 µM) | no binding (tested: 1 µM)
B4 | – | – | – | 3.5 | > 200 | 4.3 | no binding (tested: 1 µM) | no binding (tested: 1 µM) | no binding (tested: 1 µM)
B5 | – | – | 32.6 | 1.3 | > 200 | 1.5 | no binding (tested: 1 µM) | no binding (tested: 1 µM) | no binding (tested: 1 µM)
B6 | – | – | – | 1.3 | > 200 | 5.5 | no binding (tested: 1 µM) | no binding (tested: 1 µM) | no binding (tested: 1 µM)
